The nature of this data set: soluble on expression in E. coli; label from the status in PepcDB or PDB records.
“MMNLHALPTSPRRWQCYDGGNFYQTRLRVSESPNMFKKILFPLVALFMLAGCAKPPTTIEVSPTITLPQQDPSLMGVTVSINGADQRTDQALAKVTRDNQIVTLTASRALRFLLQEVLEKQMTARGYMVGPNGPVNLQIIVSQLYADVSQGNVRYNIATKADIAIIATAQNGNKMTKNYRASYNVEGAFQASNKNIADAVNSVLTDTIADMSQDTSIHEFIKQNAR”: the “soluble on expression in E. coli” value was “not soluble”.

As for “RADPDPMKNTCKLLVVADHRFYRYMGRGEESTTTNYLIELIDRVDDIYRNTAWDNAGFKGYGIQIEQIRILKSPQEVKPGEKHYNMAKSYPNEEKDAWDVKMLLEQFSFDIAEEASKVCLAHLFTYQDFDMGTLGLAYVGSPRANSHGGVCPKAYYSPVGKKNIYLNSGLTSTKNYGKTILTKEADLVTTHELGHNFGAEHDPDGLAECAPNEDQGGKYVMYPIAVSGDHENNKMFSQCSKQSIYKTIESKAQECFQERSNKVGSHHHHHH”, the “soluble on expression in E. coli” value is “soluble”.

In the case of “MGSDKIHHHHHHMASILAVDVGTTSIKAGIVSTENFEAESTQSTRAVVEYPKKHWAEKDPEKLWNSIVEVCKPLAEKANPDAIVFGAHMAGVVPVDGEGNALRNIITWLDERAAGLPEDVWKGLIKIQGYSLTKLIKFLRLTGGAPSRTGKDPISKIVWIRENEPDVFGKTFKMLDVRGYLVARATGNFVTSPDEAHLTWLADTRGGKARWSESILKDYALSASLFPEIKNCTEIAGYLRPEVRKEFGLEGDVPVMVGSGDVAAAAVGSGAVKDYECHIYVGTSDWVAAHIPQRKTDIFHFIGSLLSAIPEKYLLIAEQEVAAGALEWAMRLVGIQGEYELVKELVEKAPAGKLIFMPWFYGERAPIDDPYVRGGLVNVGLDSGREEVLRAMMEGVALNIKWVFGYVEKMTAPQQMVSIVGGGALFDIWCQIISNAVRRPLRRIKHPEETGLRGLATMAAVGLGEESFESAAAKFEVDRVFKPDDEEAKVYDRLFEYYKELYSKLKKVYRKLNSAEY”, the “soluble on expression in E. coli” value is “not soluble”.

As for “MERRSTDLLVLGAGVAGVYAALAAEERGARVLLVSKDPLPAGSTPWAQGGVAFPVGEEDLEAHLRDTLVAGRGLVEEGVARSILEEAPRHLERLRAFGLPFHPEPTREGGHSRARVFHLGGDRSGLLLLEGLLKRLSTPVVPAQALSLLVSGNRVAGALLWGPGGLWEVRAGAVLLATGGFGRLFPVTTNPHGATGDGMALAWRAGAVLRDLEFVQFHPTALPNGALVSEACRGEGALLLNAHGERFMPRYDPLAELAPRDVVARAVFRERERTGGVYLDLRPIPHLEERFPTVVAQARALGLDPLRAPLPVAPAAHYAMGGVRTDAFGHTGIPGLFAAGEVASTGFHGANRLASNSLLEGLVVGWRAALRALEDLAFPPRATPLPALAAPPEAVASLREEAGEALGVVRRKETLLAFLRRAEAVPLEEVEQASRDRLEAGSLLLLMRLLARAALAREESRGAHFREDFPLEDRPRHSLFQGWRLGFLPVGVE”, the “soluble on expression in E. coli” value was “soluble”.

As for “MFQLSTQDIHLAAQADNKNAAITQVAAALTQAGCVTAAYVDGMLAREQQTSTYLGNGIAIPHGTTDTRDQVLNTGVQVFQFPQGIEWGADQTAYIVIGIAARSDEHLALLRQLTHVLSDDAVAARLAKTTSAEELRSLLMGEQKTAEFHFDTSLIALDVAADNLITLQALNAGRLQQIGAVDARFVSDVITREPLNLGQGIWLSDSTEGNLVSAVTISRPATAFEHKGEKVALLLTLSVADDQPLTVLNYLSELLLAQKADALLNADAAALLALLTSEYVEQSKVLSAEFVIRNEHGLHARPGTILVNTIKQFTSEITVTNLDGTGKPANGRSLMKVVALGVKKGNRLRFTASGEDAQTALDTIGEVIAAGLGEGAA”, the “soluble on expression in E. coli” value is listed as “not soluble”.

On to “MDNKVILVGGFHEIIELCEDNDIEIAGIIDNYLTNDTYWGYPIIGTDDKAKVLFETYKNVPVLITPDVPHVRYKLYHYYKSIGFQVASLISRDASISRSAIIGEGTIIQRGANLSSNIKIGQMVKVNTNANIMHDCLIGNYVTVAPNAVLLGKVEIDDKAYIGANATLLPSVKIGENVTVGAGSVVTKSVRLEHHHHHH”, for which the “soluble on expression in E. coli” value is given as “not soluble”.

As to “MGSDKIHHHHHHMTDAVEILGAERSGRWVVTCDHACNRVPDDVAGGDLGLPPADMARHIAYDVGALGVARAMGEALNGPVVTSRFSRLVIDPNRGEDDPTLLMQIYDGSIIPANRGASQAEIDRRLDRFHRPYHRALAHVIAQRDDPIVVAIHSFTPQLIGRAPRPWHVSVLYAGDTRLPYPLLARLRDEDDLCVGDNEPYSGHLPGDALDRHGVQPGRLHVLIEVRNDLIETAEDQARWGVRLAQMLEAAATSADL”, the “soluble on expression in E. coli” value is given as “not soluble”.

As to “MRDIVFIERDPYAPIRHCYTVSKILYQGKSPYQEIQVIESPEFGRMLILDGVVQLDEKYEFLYHEYLAHVPLHAHPNPRNVLIIGGGDGGTLREVLKHDIVERAVLVDIDKEVIEVSKKYLPTLSVGFQDPRAIVVNEDGYKYVQDYENEFDVIIVDSTDPVGFAHVLTTEDFFRHVYKALKEDGIFVAQTESIHYHLEMVSNIQQRLKKVFPIVDLYTSVIPIYAGYWWTFSIASKKYPVRTPAREVKVQTKIYDADMHEYAFLPESFYNKIVNGEYKYLEHHHHHH”, the “soluble on expression in E. coli” value is listed as “not soluble”.

As for “MGSDKIHHHHHHMNFQRDFNDLLNALLTDWRNQFPDADLSQGSLIYMKSACLASALWGLYKYQEWISKQIFPDTAETKYLEHHAWVRGLSRRSGETDEELLARLLEYIRRPPAGGNKYDYQKWALEIDNVANAWCIPLSQGPGTVDVIIAADETVTGSEIPSSHALTGTTTAITENKLVDGAADFMATGDGGPVRIGDIAVNDDTGGQAVITAVDNATQLTLDTDIFSSIGQSYTLKSLTAQVGEYIDDVRPVTVSIVRILPPAVTLQDVTMTVTGTVNKEAIASAITSLLRSLVPGQTLYLSRLIAIAIQEGATNASISAPAADMSPGPYEMLRPGTITVS”, the “soluble on expression in E. coli” value was “not soluble”.

“MGGSHHHHHHGMASALDCCTENACSKPDDDILDIPLDDPGANAAAAKIQASFRGHMARKKIKSGERGRKGPGPGGPGGAGVARGGAGGGPSGD”: the “soluble on expression in E. coli” value is recorded as “not soluble”.

Regarding “MTEKKKRGLLSWLGFGDEEKSQTTATDTQTQDEPQSQADVEAVAIQTETALTETETETETETETETETETATVEPARIVEQEKPTESFFARLKRSLSRTKANIGAGFFGLFKGKKIDDDLFEELEEQLLIADVGMDTTSKIIANLTARASRQQLRDGEALYGLLKEEMAEILSQVEQPLVIDTEKKPYVILMVGVNGVGKTTTIGKLAKQFQAQGKKVMLAAGDTFRAAAVEQLQVWGERNQVPVIAQHTGADSASVIYDAIEAAKARGIDVVIADTAGRLQNKSNLMEELRKIVRVMKKIDDSAPHEIMLTLDAGTGQNAISQAKLFSDVAPITGITLTKLDGTAKGGVIFAIADQFQIPIRYIGVGEKIDDLRPFATQEFIDALFSREE”, the “soluble on expression in E. coli” value is “not soluble”.

Turning to “MIKIELKNKDNQIITGRIDHEKPEAPFVAEGDTLAVLAIKQYLYQVGDKIVVTYTGATPYLMVQLDETLAPSLIYLKEKVWEYQIPLEESARKAFVDTAFHSARHQIMVRQAHTFEKDNYQNLSMNTHDQKEYSGAYPHAYANVETRDDAVFFAKNAIDSKFGNLSHGSYPFASWGINQKKEAQLTIDFGRPVETDWIRLLFRADYPHDSYWEEVTLAFSDGEERVVATTNTTCFQEIKFPMKTTQTLTLKCLRKALDSSPFPALTQIEVFGRNK”, the “soluble on expression in E. coli” value is “soluble”.

“MGSDKIHHHHHHMPELTEFQKKRLENIKRNNDLLKKLHLSGVASQIKHEAGVLEKSRAPAKKKQKTTNTRATKSASPTLPTRRSRRLRGESADDVKGIPNVNDNQLLKMGSPDGQDKNFIDAIKEKPVIGDVKLSDLIKDEDESALLEKFKRFNNGNFSSGDFFEEIKKRQGDVTGMDEFDLDLYDVFQPNEIKITYERISATYFHPAMEKKLIIAGDTSGTVGFWNVRDEPLADSEEDRMEEPDITRVKLFTKNVGRIDCFPADTSKILLTSYDGSIRSVHLNNLQSEEVLTLKNEYDDSLGISDCQFSYENPNVLFLTTLGGEFTTFDTRVKKSEYNLRRLADKKIGSMAINPMRPYEIATGSLDRTLKIWDTRNLVKKPEWSQYEDYPSHEIVSTYDSRLSVSAVSYSPTDGTLVCNGYDDTIRLFDVKSRDHLSAKLEPKLTIQHNCQTGRWTSILKARFKPNKNVFAIANMKRAIDIYNSEGQQLAHLPTATVPAVISWHPLRNWIAGGNSSGKIFLFTDDSGTIKQEE”: the “soluble on expression in E. coli” value is “not soluble”.

Take “MSLELKNKKIVVTGGTSGIGLAFAKKLAAIDNQIIIGSRSKEKITEVVKDNKNISGYQVDVSDQESVERFYKQTISEFKNIDIVINSAGIMRHYNLLDEKTTSQKLQAEIQTNLIGTINIDKIFLPILRKQAESMIVNISSGLANLSSAAHPIYSATKAGVHMFTDALREQLHFAGEDHIHIVELVPPLVAETNLEKDVNSQNTPLNIKLSDLINEAIQGIEENSIRINAGMAKEMRKMGQTDPDKNEREMATMMIPMYFPDGLKEGHHHHHH”: the “soluble on expression in E. coli” value is recorded as “not soluble”.

Consider “FDLNDFLEQKVLVRMEAIINSMTMKERAKPEIIKGSRKRRIAAGSGMQVQDVNRLLKQFDDMQRMMKKM”, for which the “soluble on expression in E. coli” value is on record as “soluble”.

For “MKKINAIILLSSLTSASVFAGAYVENREAYNLASDQGEVMLRVGYNFDMGAGIMLTNTYNFQREDELKHGYNEIEGWYPLFKPTDKLTIQPGGLINDKSIGSGGAVYLDVNYKFVPWFNLTVRNRYNHNNYSSTDLSGELDNNDTYEIGTYWNFKITDKFSYTFEPHYFMRVNDFNSSNGKDHHWEITNTFRYRINEHWLPYFELRWLDRNVEPYHREQNQIRIGTKYFF”, the “soluble on expression in E. coli” value is on record as “soluble”.

For the sequence “GMENLGDRLEVVAELSLAPGNITLTPDGRLFLSLHQFYQPEMQVAELTQDGLIPFPPQSGNAIITFDTVLGIKSDGNGIVWMLDNGNQSKSVPKLVAWDTLNNQLSRVIYLPPPITLSNSFVNDLAVDLIHNFVYISDPAPDDKAALIRVDLQTGLAARVLQGYPGIAPEDIDLVIDGVPVQIGQPDGTVIRPHLGVNGIVLDAENEWLYLSPMHSTSMYRIKSADLSNLQLTDAELGSKIERYSEKPICDGISIDKDHNIYVGDLAHSAIGVITSADRAYKLLVTDEKLSWTDSFNFGSDGYLYFDCNQLHHSAPLNAGENISAPPYYIFRLKPLAAGIVGR”, the “soluble on expression in E. coli” value is “soluble”.

As to “MENKEISYEIIDFSGETNVQFRTSVDPGSYIPTHWHRAIEIIYMQEGSLDVIVESESFTIYKGDCILVNGNVLHSTKCTAPNTAILLQIPLNFMEKYIPNLGQLIFLWDYRTEDPVKKTKLMMLKTTLEQLQVINDIQPDGYLLRFNSLIFELMFQLYHNFSVQVFPQDINHKKKEMDRLDP”, the “soluble on expression in E. coli” value is on record as “not soluble”.

For the sequence “AIAVEVESDSVAERDRSSFLAGHDAIRLAKSCVDSPPERWYAALYQVYADLTKLRCWSNVEVVYSDSATFPTGLLGPLFEEDSMVQELHSAQCILGSERACFHVRCCIVGSPPSGRAINALSPQSETRTEERIITSRREPEVVIAVPMHAMLKLSNLDQALRMSSHIEGIVKNRHVADSSASTHSTDRQAGSRKSSVIFGFVDEDTTTAYYRIREGACESNDRREFSTDDIASCLAQERT”, the “soluble on expression in E. coli” value is given as “soluble”.

Take “MEKLGLEHVCGDLNTEVEHGFTCDLLSEVLGKAQPSTLWITVQSHVNIIAVATVVGIKGIVLCDGHEYEKDTVKKAEENGVVLLKSQENSFIVSGKVYELGLRLEHHHHHH”: the “soluble on expression in E. coli” value is listed as “not soluble”.

The record behind these values is the DeepSol protein solubility set.
